Source: patent US20240317877A1 (IUCF HYU INDUSTRY UNIVERSITY COOPERATION FOUNDATION HANYANG …, published 2024)

Tests used:
[1] = target: T1, human transferrin receptor (human, UniProt P02786 89-760, limits assumed); test: ELISA, plate-coated human TfR, anti-human IgG-HRP detection; WT run beside VH Y27H
T1 construct: also called hTfR; human TfR
Protocol: (§1) Human TfR (2.5 μg/ml) was coated on a 96-well half area plate (Corning) overnight at 4° C. Antibodies were prepared by diluting 5-fold from 50 nM to 0.64 pM. PBS (pH 7.5; same as blocking buffer) containing 5% skim milk was used for dilution. The plate was washed three times with PBS at pH 7.5, and then blocked with blocking buffer at room temperature for 2 hours and washed several more times. Various concentrations of anti-TfR antibodies were placed in the wells, and binding was induced for 2 hours. Unbound antibodies were then washed twice with PBST and twice with PBS.
(§2) Horseradish peroxidase (HRP)-conjugated anti-human IgG antibody (AB frontier) was added and incubated for 2 hours. After the antibody washing step, 50 μl of TMB solution was added and incubated at 37° C. for 20 minutes. Finally, an equal volume of stop solution was added and mixed, and then the absorbance was measured at 450 nm using an EMax Microplate Reader (Molecular Devices). Steps other than TMB incubation were performed at room temperature.

[2] = target: T1, human transferrin receptor; test: ELISA, plate-coated human TfR, anti-human IgG-HRP detection; WT run beside VH Y98A
Protocol: as §1, §2

[3] = target: T1, human transferrin receptor; test: ELISA, plate-coated human TfR, anti-human IgG-HRP detection; WT run beside VH Y99H
Protocol: as §1, §2

[4] = target: T1, human transferrin receptor; test: ELISA, plate-coated human TfR, anti-human IgG-HRP detection; WT run beside VL Y94A
Protocol: as §1, §2

[5] = target: T1, human transferrin receptor; test: ELISA, plate-coated human TfR; mutant against WT
Protocol: as §1, §2

[6] = target: T1, human transferrin receptor; test: ELISA, plate-coated human TfR, anti-human IgG-HRP detection
Protocol: as §1, §2

T1 sequence (P02786 89-760 limits assumed): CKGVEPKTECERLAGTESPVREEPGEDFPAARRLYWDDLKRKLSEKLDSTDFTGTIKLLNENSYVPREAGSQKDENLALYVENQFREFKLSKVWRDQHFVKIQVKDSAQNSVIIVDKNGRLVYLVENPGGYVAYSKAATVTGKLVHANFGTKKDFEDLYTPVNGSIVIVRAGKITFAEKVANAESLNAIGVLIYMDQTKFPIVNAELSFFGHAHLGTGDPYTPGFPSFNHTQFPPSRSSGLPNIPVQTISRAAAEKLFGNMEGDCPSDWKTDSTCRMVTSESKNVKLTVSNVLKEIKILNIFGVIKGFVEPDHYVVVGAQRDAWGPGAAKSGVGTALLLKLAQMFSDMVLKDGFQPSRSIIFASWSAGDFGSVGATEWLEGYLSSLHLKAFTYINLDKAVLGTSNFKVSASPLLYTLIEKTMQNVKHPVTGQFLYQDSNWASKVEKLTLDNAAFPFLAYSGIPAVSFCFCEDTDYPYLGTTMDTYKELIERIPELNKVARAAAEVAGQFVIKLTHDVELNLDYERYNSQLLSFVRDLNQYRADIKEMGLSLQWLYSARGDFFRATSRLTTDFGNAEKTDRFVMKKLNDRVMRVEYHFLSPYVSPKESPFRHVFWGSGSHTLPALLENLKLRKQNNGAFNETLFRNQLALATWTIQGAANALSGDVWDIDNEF

EC50 [1]	EC50 [2]	EC50 [3]	EC50 [4]	Fold-increase of EC50 (Reduced rate of binding affinity) [5]	EC50 [6]	Binder
0.057 nM	0.53 nM	0.048 nM	0.44 nM	–	–	anti-human transferrin receptor antibody 128.1, wild type (WT) (antibody, V domains shown, The ELISA detects with anti-human IgG-HRP; also called anti-hTfR antibody; anti-TfR(WT)) VH: EVQLQQSGPELVKPGASMKISCKASGYSFTGYTMNWVKQSHGENLEWIGRINPHNGGTDYNQKFKDKAPLTVDKSSNTAYMELLSLTSEDSAVYYCARGYYYYSLDYWGQGTSVTVSS VL: QIVLTQSPAIMSASPGEKVTMTCSASSSIDYIHWYQQKSGTSPKRWIYDTSKLASGVPARFSGSGSGTSYSLTISSMEPEDAATYYCHQRNSYPWTFGGGTRLEIR
–	–	–	–	1.2 fold	0.52 nM	anti-human transferrin receptor antibody 128.1 with VL Y94A mutation (antibody, V domains shown) VH: EVQLQQSGPELVKPGASMKISCKASGYSFTGYTMNWVKQSHGENLEWIGRINPHNGGTDYNQKFKDKAPLTVDKSSNTAYMELLSLTSEDSAVYYCARGYYYYSLDYWGQGTSVTVSS VL: QIVLTQSPAIMSASPGEKVTMTCSASSSIDYIHWYQQKSGTSPKRWIYDTSKLASGVPARFSGSGSGTSYSLTISSMEPEDAATYYCHQRNSAPWTFGGGTRLEIR
–	–	–	–	35 fold	1.98 nM	anti-human transferrin receptor antibody 128.1 with VH Y27H mutation (antibody, V domains shown, Same vector format as WT (human IgG constant region with myc-His tag, human kappa CL); also called anti-TfR(VH Y27H)) VH: EVQLQQSGPELVKPGASMKISCKASGHSFTGYTMNWVKQSHGENLEWIGRINPHNGGTDYNQKFKDKAPLTVDKSSNTAYMELLSLTSEDSAVYYCARGYYYYSLDYWGQGTSVTVSS VL: QIVLTQSPAIMSASPGEKVTMTCSASSSIDYIHWYQQKSGTSPKRWIYDTSKLASGVPARFSGSGSGTSYSLTISSMEPEDAATYYCHQRNSYPWTFGGGTRLEIR
–	–	–	–	9.2 fold	0.44 nM	anti-human transferrin receptor antibody 128.1 with VH Y99H mutation (antibody, V domains shown) VH: EVQLQQSGPELVKPGASMKISCKASGYSFTGYTMNWVKQSHGENLEWIGRINPHNGGTDYNQKFKDKAPLTVDKSSNTAYMELLSLTSEDSAVYYCARGYYYHSLDYWGQGTSVTVSS VL: QIVLTQSPAIMSASPGEKVTMTCSASSSIDYIHWYQQKSGTSPKRWIYDTSKLASGVPARFSGSGSGTSYSLTISSMEPEDAATYYCHQRNSYPWTFGGGTRLEIR
–	–	–	–	> 100 fold	–	anti-human transferrin receptor antibody 128.1 with VH Y98A mutation (antibody, V domains shown) VH: EVQLQQSGPELVKPGASMKISCKASGYSFTGYTMNWVKQSHGENLEWIGRINPHNGGTDYNQKFKDKAPLTVDKSSNTAYMELLSLTSEDSAVYYCARGYYAYSLDYWGQGTSVTVSS VL: QIVLTQSPAIMSASPGEKVTMTCSASSSIDYIHWYQQKSGTSPKRWIYDTSKLASGVPARFSGSGSGTSYSLTISSMEPEDAATYYCHQRNSYPWTFGGGTRLEIR
